From paper PMC6874894

Test system: CTCF
Assay: EMSA

| Substance | binding signal (% increase in binding vs G allele (N3)) | binding signal (% increase in binding vs G allele (N1)) |
| --- | --- | --- |
| 230 bp probe rs150502618-A | 8 | – |
| 50 bp probe rs150502618-A | – | 15 |
